These results are taken from US20230365662A1.

The chains are these.
B1: KB001 mouse Fab FASEBA VH S61Y (Fab, V domains shown)
VH: EVQLKQSGPGLVAPSQSLSITCTVSGFSLSIYSVHWVRQPPGKGLEWLGMIWGGGSSDYNYALKSRLSISKDNSKSQVFLKMNSLQTDDTAMYYCARNGNFYAMDYWGQGTSVTVSS
VL: QIVLTQSPAIMSASLGERVTMTCTASSSVSSSFLHWYQQKPGSSPQLWIYSTSNLASGVPARFSGSGSGTSYSLTISSMEAEDAATYYCHQYHHSPYIYTFGGGTKLEIK
B2: KB001 mouse Fab FASEBA VH S61R (Fab, V domains shown)
VH: EVQLKQSGPGLVAPSQSLSITCTVSGFSLSIYSVHWVRQPPGKGLEWLGMIWGGGSSDYNRALKSRLSISKDNSKSQVFLKMNSLQTDDTAMYYCARNGNFYAMDYWGQGTSVTVSS
VL: QIVLTQSPAIMSASLGERVTMTCTASSSVSSSFLHWYQQKPGSSPQLWIYSTSNLASGVPARFSGSGSGTSYSLTISSMEAEDAATYYCHQYHHSPYIYTFGGGTKLEIK
B3: KB001 mouse Fab FASEBA VH S61G (Fab, V domains shown)
VH: EVQLKQSGPGLVAPSQSLSITCTVSGFSLSIYSVHWVRQPPGKGLEWLGMIWGGGSSDYNGALKSRLSISKDNSKSQVFLKMNSLQTDDTAMYYCARNGNFYAMDYWGQGTSVTVSS
VL: QIVLTQSPAIMSASLGERVTMTCTASSSVSSSFLHWYQQKPGSSPQLWIYSTSNLASGVPARFSGSGSGTSYSLTISSMEAEDAATYYCHQYHHSPYIYTFGGGTKLEIK
B4: KB001 mouse Fab FASEBA VH S61C (Fab, V domains shown)
VH: EVQLKQSGPGLVAPSQSLSITCTVSGFSLSIYSVHWVRQPPGKGLEWLGMIWGGGSSDYNCALKSRLSISKDNSKSQVFLKMNSLQTDDTAMYYCARNGNFYAMDYWGQGTSVTVSS
VL: QIVLTQSPAIMSASLGERVTMTCTASSSVSSSFLHWYQQKPGSSPQLWIYSTSNLASGVPARFSGSGSGTSYSLTISSMEAEDAATYYCHQYHHSPYIYTFGGGTKLEIK
B5: KB001 mouse Fab FASEBA VH S61M (Fab, V domains shown)
VH: EVQLKQSGPGLVAPSQSLSITCTVSGFSLSIYSVHWVRQPPGKGLEWLGMIWGGGSSDYNMALKSRLSISKDNSKSQVFLKMNSLQTDDTAMYYCARNGNFYAMDYWGQGTSVTVSS
VL: QIVLTQSPAIMSASLGERVTMTCTASSSVSSSFLHWYQQKPGSSPQLWIYSTSNLASGVPARFSGSGSGTSYSLTISSMEAEDAATYYCHQYHHSPYIYTFGGGTKLEIK
B6: KB001 mouse Fab FASEBA VH S61F (Fab, V domains shown)
VH: EVQLKQSGPGLVAPSQSLSITCTVSGFSLSIYSVHWVRQPPGKGLEWLGMIWGGGSSDYNFALKSRLSISKDNSKSQVFLKMNSLQTDDTAMYYCARNGNFYAMDYWGQGTSVTVSS
VL: QIVLTQSPAIMSASLGERVTMTCTASSSVSSSFLHWYQQKPGSSPQLWIYSTSNLASGVPARFSGSGSGTSYSLTISSMEAEDAATYYCHQYHHSPYIYTFGGGTKLEIK
B7: KB001 mouse Fab FASEBA VH S61K (Fab, V domains shown)
VH: EVQLKQSGPGLVAPSQSLSITCTVSGFSLSIYSVHWVRQPPGKGLEWLGMIWGGGSSDYNKALKSRLSISKDNSKSQVFLKMNSLQTDDTAMYYCARNGNFYAMDYWGQGTSVTVSS
VL: QIVLTQSPAIMSASLGERVTMTCTASSSVSSSFLHWYQQKPGSSPQLWIYSTSNLASGVPARFSGSGSGTSYSLTISSMEAEDAATYYCHQYHHSPYIYTFGGGTKLEIK

Where “and” joins values, the source holds several entries; their conditions need not be identical. Identical values can stand only once.

The target in this assay is HRgpA-6H (Porphyromonas gingivalis) (UniProt P28784). Description: ELISA on coated HRgpA-6H. (In general: In an ELISA, binding on a coated surface is turned into a signal by an enzyme label.)
Sequence of UniProt P28784 (P28784 228-991 limits assumed): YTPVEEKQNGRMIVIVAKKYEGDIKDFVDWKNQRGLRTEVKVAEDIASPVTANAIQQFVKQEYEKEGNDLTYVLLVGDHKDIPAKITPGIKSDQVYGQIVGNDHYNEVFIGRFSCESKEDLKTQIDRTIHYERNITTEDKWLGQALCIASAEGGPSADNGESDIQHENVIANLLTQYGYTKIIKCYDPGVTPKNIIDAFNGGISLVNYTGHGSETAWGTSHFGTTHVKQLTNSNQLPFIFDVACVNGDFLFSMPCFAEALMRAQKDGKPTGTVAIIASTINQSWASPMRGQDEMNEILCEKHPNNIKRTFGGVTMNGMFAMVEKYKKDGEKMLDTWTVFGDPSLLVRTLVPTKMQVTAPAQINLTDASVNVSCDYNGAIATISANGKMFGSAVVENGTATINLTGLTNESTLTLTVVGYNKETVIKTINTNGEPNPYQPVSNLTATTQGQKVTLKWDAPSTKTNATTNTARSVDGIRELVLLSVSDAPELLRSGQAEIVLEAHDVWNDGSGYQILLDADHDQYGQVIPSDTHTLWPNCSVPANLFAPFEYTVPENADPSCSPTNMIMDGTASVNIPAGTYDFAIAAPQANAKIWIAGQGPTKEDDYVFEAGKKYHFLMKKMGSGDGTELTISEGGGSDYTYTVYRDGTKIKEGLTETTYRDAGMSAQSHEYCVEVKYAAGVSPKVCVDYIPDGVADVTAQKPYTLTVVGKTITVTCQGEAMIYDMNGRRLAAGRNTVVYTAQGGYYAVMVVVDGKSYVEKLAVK
Turning to B1, the OD450nm came out at 0.423 and the Ratio OD(Variant)/OD(WT) is 0.857.

Regarding B2, the OD450nm was 0.438 and the Ratio OD(Variant)/OD(WT) stood at 0.888.

Regarding B3, the OD450nm is 0.46 and 0.476; the Ratio OD(Variant)/OD(WT) is 0.932 and 0.965.

Take B4: the OD450nm stood at 0.431 and the Ratio OD(Variant)/OD(WT) was determined as 0.873.

Regarding B5, the OD450nm is 0.493 and 0.479; the Ratio OD(Variant)/OD(WT) is 0.999 and 0.971.

Take B6: the OD450nm is 0.432 and 0.473; the Ratio OD(Variant)/OD(WT) is 0.875 and 0.958.

On to B7, for which the OD450nm worked out at 0.49 and the Ratio OD(Variant)/OD(WT) was found to be 0.993.
